The results in this text go back to patent US6303749A, “Agouti and agouti-related peptide analogs” (Amgen Inc., priority 1999, dated 2001).

One may read the IC50 as the point on the concentration scale where inhibition reaches its midpoint.

Where “and” joins values, the source holds several entries; their conditions need not be identical. Equal entries are not always repeated. Bridge positions count the residues as written; N and C are the ends. Square brackets hold non-standard residues; d marks the D form. Ends that are not written are not given here. Nle = CCCC[C@H](N)C(=O)O; Abu = CC[C@H](N)C(=O)O

Assay [1] deals with T1, human melanocortin-4 (MC-4) receptors (Homo sapiens, UniProt P32245).
T1 construct: expressed in transfected cells; membrane fraction used
The assay is classed as binding. The conditions noted are these: HEK 293 cell membranes; about […] 125I-NDP-α-MSH; 180 minutes at 25 C; read-out: hMC4 IC50 (nM) 125I NDP-MSH.

The format of assay [2] is binding, human. The conditions noted are these: Table II; HEK 293 cell membranes; 125I-AGRP 1.10 nM; read-out: hMC3 IC50 (nM) 125I-AGRP.
Assay [3] has as its target T2, human melanocortin-3 (MC-3) receptors (Homo sapiens, UniProt P41968).
T2 construct: expressed in transfected cells; membrane fraction used
Nature of the assay: Melanocortin receptor binding assay, 125I-NDP-alpha-MSH competition, MC-3. The conditions noted are these: HEK 293 cell membranes; about […] 125I-NDP-α-MSH; 180 minutes at 25 C; read-out: hMC3 IC50 (nM) 125I NDP-MSH.

Assay [4] concerns the target T2, human melanocortin-3 (MC-3) receptors. Nature of the assay: Melanocortin receptor binding assay, 125I-AGRP competition, MC-3. The conditions noted are these: Table II; HEK 293 cell membranes; 125I-AGRP 1.10 nM; read-out: hMC3 IC50 (nM) 125I-AGRP.
Assay [5] concerns the target T3, human melanocortin-3 (MC-3) receptor (human, UniProt P41968). The experiment in a line: displacement of 125I-AGRP, membranes of HEK 293 cells with hMC3 (value column 4). A general note: In a radioligand displacement assay an active substance lowers the binding of a labelled ligand.
Assay [6] deals with T3, human melanocortin-3 (MC-3) receptor. Nature of the assay: displacement of 125I-NDP-alpha-MSH, membranes of HEK 293 cells with hMC3 (value column 3).
Assay [7] addresses T4, human melanocortin-4 (MC-4) receptor (human, UniProt P32245). The experiment in a line: displacement of 125I-NDP-alpha-MSH, membranes of HEK 293 cells with hMC4 (value column 1).
The target in assay [8] is T4, human melanocortin-4 (MC-4) receptor. Nature of the assay: displacement of 125I-AGRP, membranes of HEK 293 cells with hMC4 (value column 2; its head prints hMC3).

T2 sequence (P41968 whole entry): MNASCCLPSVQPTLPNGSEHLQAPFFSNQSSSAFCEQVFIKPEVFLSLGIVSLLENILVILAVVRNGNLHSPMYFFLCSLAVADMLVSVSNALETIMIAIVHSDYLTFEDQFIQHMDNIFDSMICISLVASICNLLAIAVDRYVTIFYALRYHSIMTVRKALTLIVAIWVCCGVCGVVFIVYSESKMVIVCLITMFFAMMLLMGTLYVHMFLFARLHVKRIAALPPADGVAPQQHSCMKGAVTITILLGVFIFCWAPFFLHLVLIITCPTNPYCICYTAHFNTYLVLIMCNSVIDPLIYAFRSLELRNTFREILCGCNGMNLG
T1 sequence (P32245 whole entry): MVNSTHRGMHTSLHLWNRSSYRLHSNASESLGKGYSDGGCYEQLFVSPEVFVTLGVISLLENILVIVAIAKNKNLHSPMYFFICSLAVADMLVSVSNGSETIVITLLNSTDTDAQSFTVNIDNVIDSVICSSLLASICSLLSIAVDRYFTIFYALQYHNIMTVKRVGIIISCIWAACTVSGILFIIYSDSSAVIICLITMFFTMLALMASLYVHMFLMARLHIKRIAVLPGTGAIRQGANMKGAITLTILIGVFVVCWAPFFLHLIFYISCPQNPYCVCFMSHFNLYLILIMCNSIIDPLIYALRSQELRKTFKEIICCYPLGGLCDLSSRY
T4 sequence (P32245 whole entry): as above

Take “C[Abu]DPCAT[Abu]Y[Abu]RFFNAF[Abu]YCRKLGTAMNPCSRT (cysteine pairing not given here) [SEQ ID NO:11]”: the IC50 in assay [1] is over 1000 nM; in assay [2], 800 nM; in assay [3] it was over 1000 nM; in assay [4], over 1000 nM.
On to “RNSCKPPAPAC[Abu]DP[Abu]ASCQCRFFRSACSCRVL (cysteine pairing not given here) [SEQ ID NO:13]”, for which the IC50 in assay [1] is 1000 nM; in assay [2], 60 nM; in assay [3], over 1000 nM; in assay [4], over 1000 nM.
For the molecule “[Abu][Abu]DPCAT[Abu]YCRFFNAFCY[Abu]RKLGTAMNPCSRT (cysteine pairing not given here) [SEQ ID NO:9]”, the IC50 in assay [1] is 600 nM; in assay [2], 73 nM; in assay [3], over 1000 nM; in assay [4], 700 nM.
Consider “Cys-Abu-Asp-Pro-Abu-Ala-Thr-Abu-Tyr-Cys-Arg-Phe-Phe-Asn-Ala-Phe-Cys-Tyr-Cys-Arg-Lys-Leu-Gly-Thr-Ala-Met-Asn-Pro-Abu-Ser-Arg-Thr [SEQ ID NO:10]”, for which the concentration for half-maximal inhibition (IC50) stood at 102 nM in assay [1], 15 nM in assay [2], 500 nM in assay [3] and 147 nM in assay [4].
Consider “[Abu][Abu]DPCAS[Abu]QCRFFRSACS[Abu]RVLSLNC (cysteine pairing not given here) [SEQ ID NO:17]”, for which the concentration for half-maximal inhibition (IC50) in assay [1], in assay [2], in assay [3] and in assay [4] was over 1000 nM each time.
For “AC[Abu]DP[Abu]AS[Abu]QCRFFRSACSCRVL (cysteine pairing not given here) [SEQ ID NO:16]”, the IC50 is over 1000 nM in assay [1], 280 nM in assay [2], over 1000 nM in assay [3] and over 1000 nM in assay [4].
With “HESCLGQQVPC[Abu]DP[Abu]ATCYCRFFNAFCYCRKL (cysteine pairing not given here) [SEQ ID NO:2]”, the 50% inhibitory concentration (IC50) in assay [1] is 200 nM; in assay [3] it was over 1000 nM; in assay [4], 850 nM.
Regarding “His-Glu-Ser-Abu-Leu-Gly-Gln-Gln-Val-Pro-Cys-Abu-Asp-Pro-Abu-Ala-Thr-Abu-Tyr-Cys-Arg-Phe-Phe-Asn-Ala-Phe-Cys-Tyr-Cys-Arg-Lys-Leu [SEQ ID NO:4]”, the values for the IC50 in assay [1], in assay [3] and in assay [4] were 100 nM, 850 nM and 90 nM, respectively.
With “C[Abu]DPCAT[Abu]YCRFFNAFCYCRKLGTAMNPCSRT (cysteine pairing not given here) [SEQ ID NO:8]”, the IC50 in assay [4] was 400 nM.

B1: peptide of SEQ ID NO:18 (peptide)
peptide: C[Abu]DPCAS[Abu]Q[Abu]RFFRSA[Abu]SCRVLSLNC
modifications: disulfide (positions not given here); also: oxidised to disulfides, pairs not given here
With B1, the IC50 in assay [5], in assay [6], in assay [7] and in assay [8] was over 1000 nM each time.

B2: peptide of SEQ ID NO:9 (peptide)
peptide: [Abu][Abu]DPCAT[Abu]YCRFFNAFCY[Abu]RKLGTAMNPCSRT
modifications: disulfide (positions not given here); not fully specified (bridges); also: disulfide pairing not given here
B2: the IC50 in assay [5] was 700 nM; in assay [6], over 1000 nM; in assay [7] it was 600 nM; in assay [8], 73 nM.
With Ac-[Nle]H[dF]RWK [NDP-alpha-MSH], the concentration for half-maximal inhibition (IC50) in assay [6] is 0.9 nM and 0.7 nM; in assay [7], 8 nM.

B3: peptide of SEQ ID NO:17 (peptide)
peptide: [Abu][Abu]DPCAS[Abu]QCRFFRSACS[Abu]RVLSLNC
modifications: disulfide (positions not given here); also: oxidised to disulfides, pairs not given here
B3: the IC50 in assay [5], in assay [6], in assay [7] and in assay [8] was over 1000 nM throughout.

B4: peptide of SEQ ID NO:14 (peptide)
peptide: RNSCKPPAPA[Abu][Abu]DP[Abu]ASCQCRFFRSACS[Abu]RVL
modifications: disulfide (positions not given here); also: oxidised to disulfides, pairs not given here
Consider B4, for which the half-maximal inhibitory concentration (IC50) was over 1000 nM in assay [5], over 1000 nM in assay [6], over 1000 nM in assay [7] and 900 nM in assay [8].
As for HES[Abu]LGQQVPC[Abu]DP[Abu]AT[Abu]YCRFFNAFCYCRKL (disulfide (positions not given here)) [peptide of SEQ ID NO:4], the IC50 in assay [5] stood at 90 nM; in assay [6] it was 850 nM; in assay [7], 100 nM.
As to HESCLGQQVPC[Abu]DP[Abu]ATCY[Abu]RFFNAF[Abu]YCRKL (disulfide (positions not given here)) [peptide of SEQ ID NO:5], the IC50 was over 1000 nM in assay [5], over 1000 nM in assay [6], over 1000 nM in assay [7] and 377 nM in assay [8].
For HESCLGQQVPC[Abu]DP[Abu]ATCYCRFFNAFCYCRKL (disulfide (positions not given here)) [peptide of SEQ ID NO:2], the IC50 in assay [5] was 850 nM; in assay [6], over 1000 nM; in assay [7] it was 200 nM; in assay [8], 50 nM.
For the molecule CRFFNAFC (disulfide 1-8 (inferred)) [peptide of SEQ ID NO:6], the IC50 in assay [5], in assay [6] and in assay [7] was over 1000 nM in each case.

B5: Mkd5-AGRP (ligand)
chain: APMEGIRRPDQALLPELPGLGLRAPLKKTTAEQAEEDLLQEAQALAEVLDLQDREPRSSRRCVRLHESCLGQQVPCCDPCATCYCRFFNAFCYCRKLGTAMNPCSRT
For B5, the IC50 in assay [5] is 0.7 nM; in assay [6] it was 20 nM and 10 nM.
CRFFGSAC (disulfide 1-8 (inferred)) [peptide of SEQ ID NO:7]: the 50% inhibitory concentration (IC50) in assay [5], in assay [6] and in assay [7] was over 1000 nM throughout.
In turn, MRCVRLHESCLGQQVPCCDPCATCYCRFFNAFCYCRKLGTAMNPCSRT [Md65-AGRP] came in with an IC50 in assay [6] of 2 nM.
Take RNS[Abu]KPPAPAC[Abu]DP[Abu]AS[Abu]QCRFFRSACSCRVL (disulfide (positions not given here)) [peptide of SEQ ID NO:15]: the IC50 in assay [5] was over 1000 nM; in assay [6] it was over 1000 nM; in assay [7] it was 800 nM; in assay [8], 45 nM.

B6: peptide of SEQ ID NO:13 (peptide)
peptide: RNSCKPPAPAC[Abu]DP[Abu]ASCQCRFFRSACSCRVL
modifications: disulfide (positions not given here); not fully specified (bridges); printed as Arg-Asn-Ser-Cys-Lys-Pro-Pro-Ala-Pro-Ala-Cys-Abu-Asp-Pro-Abu-Ala-Ser-Cys-Gln-Cys-Arg-Phe-Phe-Arg-Ser-Ala-Cys-Ser-Cys-Arg-Val-Leu; also: three disulfides, pairing not given here
Regarding B6, the IC50 is over 1000 nM in assay [5], over 1000 nM in assay [6], 1000 nM in assay [7] and 60 nM in assay [8].
On to AC[Abu]DP[Abu]AS[Abu]QCRFFRSACSCRVL (disulfide (positions not given here)) [peptide of SEQ ID NO:16], for which the 50% inhibitory concentration (IC50) in assay [5] is over 1000 nM; in assay [6], over 1000 nM; in assay [7], over 1000 nM; in assay [8], 280 nM.

B7: peptide of SEQ ID NO:11 (peptide)
peptide: C[Abu]DPCAT[Abu]Y[Abu]RFFNAF[Abu]YCRKLGTAMNPCSRT
modifications: disulfide (positions not given here); also: oxidised to disulfides, pairs not given here
In the case of B7, the IC50 in assay [5] was over 1000 nM; in assay [6] it was over 1000 nM; in assay [7], over 1000 nM; in assay [8], 800 nM.
On to HESCLGQQVP[Abu][Abu]DP[Abu]ATCYCRFFNAFCY[Abu]RKL (disulfide (positions not given here)) [peptide of SEQ ID NO:3], for which the IC50 in assay [5] was over 1000 nM; in assay [6], over 1000 nM; in assay [7] it was 900 nM; in assay [8], 160 nM.
